According to article PMC3360964 (Molecular Cell, 2012):

Columns and labels:
Assay in all cases: pull-down
[1] = target: T1, F-AFF4(Δ301–400), affinity-purified (UniProt Q9UHB7 1-1163, Δ301–400)
T1 sequence (looked up): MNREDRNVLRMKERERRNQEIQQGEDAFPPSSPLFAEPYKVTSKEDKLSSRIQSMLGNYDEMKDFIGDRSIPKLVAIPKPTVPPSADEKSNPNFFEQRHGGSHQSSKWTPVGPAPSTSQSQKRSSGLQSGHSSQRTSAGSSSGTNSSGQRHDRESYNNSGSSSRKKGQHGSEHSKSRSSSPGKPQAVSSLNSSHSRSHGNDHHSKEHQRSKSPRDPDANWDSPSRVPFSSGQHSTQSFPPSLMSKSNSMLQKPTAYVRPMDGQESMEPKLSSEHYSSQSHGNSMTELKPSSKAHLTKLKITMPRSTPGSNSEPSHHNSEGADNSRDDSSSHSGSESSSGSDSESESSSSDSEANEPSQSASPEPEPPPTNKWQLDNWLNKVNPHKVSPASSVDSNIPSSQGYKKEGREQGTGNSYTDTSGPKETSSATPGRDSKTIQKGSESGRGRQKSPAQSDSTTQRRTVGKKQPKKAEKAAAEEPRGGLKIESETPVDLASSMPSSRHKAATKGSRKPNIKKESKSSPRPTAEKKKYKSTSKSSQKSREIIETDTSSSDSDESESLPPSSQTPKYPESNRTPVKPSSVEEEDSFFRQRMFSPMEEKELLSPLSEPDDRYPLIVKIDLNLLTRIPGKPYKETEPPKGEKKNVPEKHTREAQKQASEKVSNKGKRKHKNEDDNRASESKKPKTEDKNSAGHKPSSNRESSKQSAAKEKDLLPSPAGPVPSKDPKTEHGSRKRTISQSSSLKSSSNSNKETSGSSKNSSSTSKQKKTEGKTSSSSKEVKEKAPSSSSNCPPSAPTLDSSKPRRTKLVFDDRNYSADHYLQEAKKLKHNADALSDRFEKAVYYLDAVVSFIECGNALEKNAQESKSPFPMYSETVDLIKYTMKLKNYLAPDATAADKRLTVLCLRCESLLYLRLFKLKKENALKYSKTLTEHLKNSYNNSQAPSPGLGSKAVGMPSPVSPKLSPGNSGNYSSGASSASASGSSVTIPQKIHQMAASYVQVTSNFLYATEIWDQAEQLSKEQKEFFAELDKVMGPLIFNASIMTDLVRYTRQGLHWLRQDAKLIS

[2] = target: ELL2-F, affinity-purified (UniProt O00472 1-640)
[3] = target: T2, F-AFF4, wild type, affinity-purified (UniProt Q9UHB7 1-1163)
T2 sequence (looked up): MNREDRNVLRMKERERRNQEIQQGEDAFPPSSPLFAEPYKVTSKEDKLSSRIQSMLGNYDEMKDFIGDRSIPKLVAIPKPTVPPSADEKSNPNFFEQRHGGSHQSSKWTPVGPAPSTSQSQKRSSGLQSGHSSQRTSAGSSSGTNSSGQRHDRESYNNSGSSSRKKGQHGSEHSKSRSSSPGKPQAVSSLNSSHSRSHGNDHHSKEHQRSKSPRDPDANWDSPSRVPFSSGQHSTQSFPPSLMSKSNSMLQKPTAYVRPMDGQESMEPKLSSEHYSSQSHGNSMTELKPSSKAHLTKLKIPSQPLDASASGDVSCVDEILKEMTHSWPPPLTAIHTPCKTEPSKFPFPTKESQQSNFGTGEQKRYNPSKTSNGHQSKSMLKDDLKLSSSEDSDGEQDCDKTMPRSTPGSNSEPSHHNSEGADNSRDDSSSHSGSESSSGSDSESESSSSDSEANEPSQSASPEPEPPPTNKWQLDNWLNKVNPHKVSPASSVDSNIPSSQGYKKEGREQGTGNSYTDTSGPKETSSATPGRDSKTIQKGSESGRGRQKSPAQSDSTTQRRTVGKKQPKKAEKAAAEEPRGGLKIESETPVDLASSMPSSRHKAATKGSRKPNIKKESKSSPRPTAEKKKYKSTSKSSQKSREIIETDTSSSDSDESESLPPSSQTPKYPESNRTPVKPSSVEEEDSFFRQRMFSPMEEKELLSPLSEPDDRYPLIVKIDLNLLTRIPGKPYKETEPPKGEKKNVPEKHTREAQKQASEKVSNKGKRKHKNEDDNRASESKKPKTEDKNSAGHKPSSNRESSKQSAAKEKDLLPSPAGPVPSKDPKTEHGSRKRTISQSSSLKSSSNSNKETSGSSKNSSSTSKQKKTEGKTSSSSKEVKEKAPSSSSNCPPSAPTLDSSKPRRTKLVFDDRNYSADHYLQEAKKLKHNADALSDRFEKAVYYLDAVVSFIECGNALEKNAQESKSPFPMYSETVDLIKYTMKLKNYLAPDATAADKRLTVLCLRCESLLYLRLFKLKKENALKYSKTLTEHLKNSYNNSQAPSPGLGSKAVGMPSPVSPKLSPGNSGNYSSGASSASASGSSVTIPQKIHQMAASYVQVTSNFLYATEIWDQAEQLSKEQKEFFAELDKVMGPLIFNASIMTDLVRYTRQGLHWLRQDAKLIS

Chain of ELL2-F, affinity-purified (O00472 whole entry): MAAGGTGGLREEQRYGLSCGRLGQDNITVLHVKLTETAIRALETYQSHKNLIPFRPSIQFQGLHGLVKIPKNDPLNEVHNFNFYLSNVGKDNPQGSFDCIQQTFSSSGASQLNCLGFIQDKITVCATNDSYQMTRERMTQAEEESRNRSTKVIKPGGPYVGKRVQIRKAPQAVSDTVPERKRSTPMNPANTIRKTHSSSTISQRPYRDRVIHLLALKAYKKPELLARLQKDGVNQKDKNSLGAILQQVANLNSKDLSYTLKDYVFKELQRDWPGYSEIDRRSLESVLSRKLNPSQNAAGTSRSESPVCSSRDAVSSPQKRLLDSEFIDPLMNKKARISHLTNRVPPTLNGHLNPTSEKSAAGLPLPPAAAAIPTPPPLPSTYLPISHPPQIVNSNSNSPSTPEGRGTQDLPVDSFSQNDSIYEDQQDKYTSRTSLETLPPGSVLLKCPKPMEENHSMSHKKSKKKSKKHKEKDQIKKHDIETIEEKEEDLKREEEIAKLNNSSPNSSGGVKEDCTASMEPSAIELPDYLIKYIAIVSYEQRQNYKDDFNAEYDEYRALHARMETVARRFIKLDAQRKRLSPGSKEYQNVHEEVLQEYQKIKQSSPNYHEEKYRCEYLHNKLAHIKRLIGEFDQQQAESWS

binding result [1]: binds
binding result [2]: binds
binding result [3]: binds
B1: HA-Siah1 immobilized on anti-HA beads (enzyme, human, UniProt Q8IUQ4-2 1-313, looked up)
chain: MTGKATPPSLYSWRGVLFTCLPAARTRKRKEMSRQTATALPTGTSKCPPSQRVPALTGTTASNNDLASLFECPVCFDYVLPPILQCQSGHLVCSNCRPKLTCCPTCRGPLGSIRNLAMEKVANSVLFPCKYASSGCEITLPHTEKADHEELCEFRPYSCPCPGASCKWQGSLDAVMPHLMHQHKSITTLQGEDIVFLATDINLPGAVDWVMMQSCFGFHFMLVLEKQEKYDGHQQFFAIVQLIGTRKQAENFAYRLELNGHRRRLTWEATPRSIHEGIATAIMNSDCLVFDTSIAQLFAENGNLGINVTISMC
